Biological target: the molecule itself
Experiment: native gel or EMSA

B1: bovine Coronin-1A (p3×Flag-bCoronin-1A) (natural protein)
chain: MSRQVVRSSKFRHVFGQPAKADQCYEDVRVSQNTWDSGFCAVNPKFVALICEASGGGAFLVLPLGKTGRVDKNVPMVCGHTAPVLDIAWCPHNDNVIASGSEDCSVMVWEIPDGGLTLPLREPVVTLEGHTKRVGIVAWHPTAQNVLLSAGCDNVILVWDVGTGVAVLTLGSDVHPDTIYSVDWSRDGALICTSCRDKRVRIIEPRKGTIVAEKDRPHEGTRPVRAVFVSDGKILTTGFSRMSERQVALWDTKHLEEPLSLQELDTSSGVLLPFFDPDTNIVYLCGKGDSSIRYFEITSEAPFLHYLSMFSSKESQRGMGYMPKRGLEVNKCEIARFYKLHERKCEPIAMTVPRKSDLFQEDLYPPTAGPDAALTAEEWLGGRDAGPLLISLKDGYVPPKSRELRVNRGLDTGRKRTTPEASGAPSSDAISRLEEEMRKLQATVQELQKRLDRLEETVQAK
stoichiometry N: 3
